Assay results as given in patent US20250326840A1 (QURE BIOTECHNOLOGY SHANGHAI, published 2025).
Where a chain is given by its changes, count along the chain named. Numbers in names are those of the source. Where two headings read alike, the source gives them in different places.

Key:
[1] = biological target: QP003 (PDL1-his); test: ELISA, QP003 (PDL1-his) captured on coated anti-his, anti-hFc detection; unit from the x axis Log(Conc.(nM))
[2] = biological target: T1, PD-L1-mouse Fc protein (human, UniProt Q9NZQ7 19-239, limits assumed); test: competitive ELISA, PD-1 coated, PD-L1-mouse Fc
[3] = biological target: T2, human PD-L1 on HCC827 cells (human, UniProt Q9NZQ7 19-290); test: FACS on HCC827 cells
T2 construct: whole, on cells; also called HCC827 cells naturally expressing human PD-L1

[4] = biological target: T1, PD-L1-mouse Fc protein; test: competitive ELISA, CD80 coated, PD-L1-mouse Fc
[5] = biological target: T3, QP271 (rhesus SIRPα1-flag-his T-557-28) (rhesus monkey); test: SPR, Biacore 8K
T3 construct: also called rhesus monkey SIRPα (QP271); monkeySIRPα1-flag-his
T3 chain: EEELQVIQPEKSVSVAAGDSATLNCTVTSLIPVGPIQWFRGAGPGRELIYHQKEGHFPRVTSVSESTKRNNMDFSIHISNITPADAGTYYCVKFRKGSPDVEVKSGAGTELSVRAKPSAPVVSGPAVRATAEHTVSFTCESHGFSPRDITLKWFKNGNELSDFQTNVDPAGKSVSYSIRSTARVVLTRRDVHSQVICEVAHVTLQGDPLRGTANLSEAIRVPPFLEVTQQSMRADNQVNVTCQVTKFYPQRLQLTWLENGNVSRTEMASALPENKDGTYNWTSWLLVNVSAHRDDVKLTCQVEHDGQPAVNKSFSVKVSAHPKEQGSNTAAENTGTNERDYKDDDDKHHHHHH

[6] = biological target: T4, QP098 (cyno SIRPα (I7G9Z7) ECD(E31-R369)-flag-his) (cynomolgus); test: SPR, Biacore 8K
T4 construct: the construct carries flag and his tags; also called cynoSIRPα (ECD); cynomolgus SIRPα
T4 chain: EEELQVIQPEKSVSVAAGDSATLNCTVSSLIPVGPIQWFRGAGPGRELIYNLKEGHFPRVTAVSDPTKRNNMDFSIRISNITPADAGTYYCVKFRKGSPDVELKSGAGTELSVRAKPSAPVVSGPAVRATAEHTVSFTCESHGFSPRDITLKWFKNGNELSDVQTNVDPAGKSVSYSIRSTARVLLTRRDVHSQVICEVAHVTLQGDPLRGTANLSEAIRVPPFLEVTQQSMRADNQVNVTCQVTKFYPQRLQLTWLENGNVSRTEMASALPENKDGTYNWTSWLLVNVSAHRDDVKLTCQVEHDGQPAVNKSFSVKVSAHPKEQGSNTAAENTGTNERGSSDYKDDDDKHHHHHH

[7] = biological target: T5, PD-L1-his (QPP09) (human, UniProt Q9NZQ7 19-239, limits assumed); test: SPR, Biacore 8K
T5 construct: also called human PD-L1; human PD-L1 recombinant protein

[8] = biological target: T6, Rhesus PD-L1 (rhesus monkey, UniProt F6PJN1 19-239); test: SPR, Biacore 8K
T6 construct: also called rhesus monkey PD-L1

[9] = biological target: T5, PD-L1-his (QPP09); test: SPR, Biacore 8K; remark: listed apart in the source
[10] = biological target: T1, PD-L1-mouse Fc protein; test: blocking ELISA: QP1138 (PD1-FC) coated, PDL1-mouse FC mixed with the antibody, HRP anti-mouse IgG; blocked partner: PD-1; unit from the x axis Log(Conc.(nM))
[11] = biological target: T5, PD-L1-his (QPP09); test: ELISA, PD-L1 captured by coated anti-HIS antibody
[12] = biological target: T7, QP100 (cyno SIRPα (G7PGS8) ECD(E29-R368)-flag-his) (cynomolgus); test: SPR, Biacore
T7 construct: the construct carries flag and his tags; also called cynoSIRPα-flag-his; Cynomolgus SIRPα (QP100)
T7 chain: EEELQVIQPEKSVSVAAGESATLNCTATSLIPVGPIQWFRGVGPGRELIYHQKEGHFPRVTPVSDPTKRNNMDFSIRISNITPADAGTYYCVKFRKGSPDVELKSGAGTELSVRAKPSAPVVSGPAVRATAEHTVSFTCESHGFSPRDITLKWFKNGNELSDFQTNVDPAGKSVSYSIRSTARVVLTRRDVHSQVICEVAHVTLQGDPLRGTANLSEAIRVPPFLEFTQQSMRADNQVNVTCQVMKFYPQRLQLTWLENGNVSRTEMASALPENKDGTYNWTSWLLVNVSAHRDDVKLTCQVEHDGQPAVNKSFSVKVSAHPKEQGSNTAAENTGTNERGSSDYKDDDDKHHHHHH

[13] = biological target: T8, QP096 (human SIRPα V2 ECD(E31-R370)-flag-his) (human); test: SPR, Biacore
T8 construct: the construct carries flag and his tags; also called SIRPαV2-Flag-his; Human SIRPα V2 (QP096)

[14] = biological target: T9, QP094 (human SIRPα V1 ECD(E31-R370)-flag-his) (human, UniProt P78324 31-370); test: SPR, Biacore
T9 construct: the construct carries flag and his tags; also called SIRPαV1-flag-his; SIRPαV1-his (QP094)

[15] = biological target: T10, QP273 (cynoSIRPα2-flag-his T-557-14) (cynomolgus); test: binding ELISA, antigen coated
T10 construct: also called cynomolgus SIRPα (QP273)
T10 chain: T3 chain with D19E, V27A, A42V, H51S, S62P, E65D, S66P, H77R, V103L

[16] = biological target: T3, QP271 (rhesus SIRPα1-flag-his T-557-28); test: binding ELISA, antigen coated
[17] = biological target: T4, QP098 (cyno SIRPα (I7G9Z7) …); test: binding ELISA, antigen coated
[18] = biological target: T7, QP100 (cyno SIRPα (G7PGS8) …); test: binding ELISA, antigen coated
[19] = biological target: T8, QP096 (human SIRPα V2 …); test: binding ELISA, antigen coated
[20] = biological target: T9, QP094 (human SIRPα V1 …); test: binding ELISA, antigen coated
[21] = biological target: T10, QP273 (cynoSIRPα2-flag-his T-557-14); test: SPR, Biacore
[22] = biological target: T3, QP271 (rhesus SIRPα1-flag-his T-557-28); test: SPR, Biacore
[23] = biological target: T4, QP098 (cyno SIRPα (I7G9Z7) …); test: SPR, Biacore
[24] = biological target: T8, QP096 (human SIRPα V2 …); test: SPR, Biacore; remark: listed apart in the source
[25] = biological target: T9, QP094 (human SIRPα V1 …); test: SPR, Biacore; remark: listed apart in the source
[26] = biological target: T11, QP002 (biotinylated in the blocking assays, sites not given); test: blocking ELISA: QP001.2 (CD47) coated, biotin-QP002 (SIRPα-FC) mixed with the antibody, HRP-streptavidin; blocked ligand: CD47
T11 construct: also called SIRPα-FC; Biotin-QP002

[27] = biological target: T12, QP009 (SIRPα) (Homo sapiens (Human)); test: ELISA of hybridoma supernatant on QP009
T12 construct: Entry includes a C-terminal flag-his tag as printed; also called recombinant protein QP009
T12 chain: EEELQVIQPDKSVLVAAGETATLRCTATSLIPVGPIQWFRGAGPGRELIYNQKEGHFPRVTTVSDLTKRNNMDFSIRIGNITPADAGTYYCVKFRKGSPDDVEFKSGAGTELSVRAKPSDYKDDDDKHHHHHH

[28] = biological target: T11, QP002; test: blocking ELISA: CD47 FC (QP001) coated, biotin SIRPα-FC (QP002) mixed with the antibody, HRP-streptavidin; blocked ligand: CD47; unit from the x axis Log(Conc.(nM))
[29] = biological target: T8, QP096 (human SIRPα V2 …); test: SPR, Biacore T200
[30] = biological target: T9, QP094 (human SIRPα V1 …); test: SPR, Biacore T200

T1 sequence (Q9NZQ7 19-239 limits assumed): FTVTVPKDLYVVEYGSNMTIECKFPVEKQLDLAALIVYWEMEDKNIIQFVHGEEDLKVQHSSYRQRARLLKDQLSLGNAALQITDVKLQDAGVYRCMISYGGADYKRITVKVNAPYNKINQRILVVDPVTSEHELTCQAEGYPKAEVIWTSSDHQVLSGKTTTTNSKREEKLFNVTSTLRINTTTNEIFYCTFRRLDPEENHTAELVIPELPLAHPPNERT
T5 sequence (Q9NZQ7 19-239 limits assumed): as above
QP003 (PDL1-his), sequence (chain, as listed by the source limits assumed): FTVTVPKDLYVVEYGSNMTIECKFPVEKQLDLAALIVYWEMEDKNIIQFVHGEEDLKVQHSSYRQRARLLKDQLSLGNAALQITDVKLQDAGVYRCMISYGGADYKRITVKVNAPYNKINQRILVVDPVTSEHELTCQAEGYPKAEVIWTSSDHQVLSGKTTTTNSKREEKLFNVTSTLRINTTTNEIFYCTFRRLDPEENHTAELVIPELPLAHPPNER
T2 sequence (Q9NZQ7 19-290): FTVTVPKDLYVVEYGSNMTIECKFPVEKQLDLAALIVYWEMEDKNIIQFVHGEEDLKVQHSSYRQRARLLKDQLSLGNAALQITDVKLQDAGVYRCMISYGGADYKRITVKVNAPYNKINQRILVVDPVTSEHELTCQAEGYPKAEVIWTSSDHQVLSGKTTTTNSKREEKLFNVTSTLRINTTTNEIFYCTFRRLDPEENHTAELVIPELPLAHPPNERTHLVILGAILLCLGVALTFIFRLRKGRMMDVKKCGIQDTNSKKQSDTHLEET

B1: Q-1801 (bispecific antibody, human IgG1, kappa, L234A L235A)
heavy: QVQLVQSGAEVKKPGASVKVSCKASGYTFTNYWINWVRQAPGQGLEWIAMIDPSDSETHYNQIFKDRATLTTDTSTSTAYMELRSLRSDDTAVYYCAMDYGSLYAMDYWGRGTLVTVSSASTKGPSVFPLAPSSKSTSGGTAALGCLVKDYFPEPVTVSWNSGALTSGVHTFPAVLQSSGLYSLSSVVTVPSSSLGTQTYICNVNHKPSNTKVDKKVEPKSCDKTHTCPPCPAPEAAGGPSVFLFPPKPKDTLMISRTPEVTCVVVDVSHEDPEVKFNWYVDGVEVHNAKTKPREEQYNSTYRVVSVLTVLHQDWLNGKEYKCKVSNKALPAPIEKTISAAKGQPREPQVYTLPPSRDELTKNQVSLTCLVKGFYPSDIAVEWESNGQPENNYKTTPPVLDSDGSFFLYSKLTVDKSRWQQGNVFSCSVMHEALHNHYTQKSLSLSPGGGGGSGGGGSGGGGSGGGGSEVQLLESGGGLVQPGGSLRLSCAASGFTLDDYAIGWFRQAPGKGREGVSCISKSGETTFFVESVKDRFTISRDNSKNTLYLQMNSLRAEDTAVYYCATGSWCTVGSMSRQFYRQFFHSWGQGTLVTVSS
light: DIVLTQSPDSLAVSLGERATINCRASQSVRSSGYNWIFWYQQKPGQPPKLLIYLASNRDSGVPDRFSGSGSGTDFTLTISSLQAEDVAVYYCQHSRELPTFGQGTKLEIKRTVAAPSVFIFPPSDEQLKSGTASVVCLLNNFYPREAKVQWKVDNALQSGNSQESVTEQDSKDSTYSLSSTLTLSKADYEKHKVYACEVTHQGLSSPVTKSFNRGEC
notes: Anti-SIRPα VH-CH1-Fc(L234A, L235A, K338A)-(G4S)4-anti-PD-L1 VHH heavy chain; kept as one molecule; also called CHO44; QP32820279
EC50 [1]: 0.0307 nM | IC50 [2]: 0.904 nM | EC50 [3]: 0.142 nM | IC50 [4]: 0.742 nM | Kd [5]: 0.522 nM | koff [5]: 0.00303 s⁻¹ | kon [5]: 5.81e+06 M⁻¹ s⁻¹ | Kd [6]: 2.14 nM | koff [6]: 0.0117 s⁻¹ | kon [6]: 5.46e+06 M⁻¹ s⁻¹ | Kd [7]: 0.431 nM | koff [7]: 0.000433 s⁻¹ | kon [7]: 1.01e+06 M⁻¹ s⁻¹ | Kd [8]: 0.499 nM | koff [8]: 0.000779 s⁻¹ | kon [8]: 1.56e+06 M⁻¹ s⁻¹ | Kd [9]: 0.429 nM | koff [9]: 0.000433 s⁻¹ | kon [9]: 1.01e+06 M⁻¹ s⁻¹ | IC50 [10]: 0.382 nM | EC50 [11]: 0.122 nM

B2: QP32700625 (bispecific antibody, human IgG1, kappa, L234A L235A)
heavy: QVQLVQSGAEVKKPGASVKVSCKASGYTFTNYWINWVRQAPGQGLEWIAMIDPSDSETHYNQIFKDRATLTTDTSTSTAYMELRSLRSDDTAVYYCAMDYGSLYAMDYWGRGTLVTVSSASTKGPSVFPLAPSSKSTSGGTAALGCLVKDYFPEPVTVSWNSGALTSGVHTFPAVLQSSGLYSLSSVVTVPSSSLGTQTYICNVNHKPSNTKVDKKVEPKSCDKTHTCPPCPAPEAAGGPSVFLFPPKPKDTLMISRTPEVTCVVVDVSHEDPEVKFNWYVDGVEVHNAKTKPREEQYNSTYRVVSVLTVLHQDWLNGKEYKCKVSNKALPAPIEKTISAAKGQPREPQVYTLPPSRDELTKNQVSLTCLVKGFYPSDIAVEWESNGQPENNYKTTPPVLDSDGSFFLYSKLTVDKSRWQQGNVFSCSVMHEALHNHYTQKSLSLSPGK
light: EVQLLESGGGLVQPGGSLRLSCAASGFTLDDYAIGWFRQAPGKGREGVSCISKSGETTFFVESVKDRFTISRDNSKNTLYLQMNSLRAEDTAVYYCATGSWCTVGSMSRQFYRQFFHSWGQGTLVTVSSGGGGSGGGGSGGGGSDIVLTQSPDSLAVSLGERATINCRASQSVRSSGYNWIFWYQQKPGQPPKLLIYLASNRDSGVPDRFSGSGSGTDFTLTISSLQAEDVAVYYCQHSRELPTFGQGTKLEIKRTVAAPSVFIFPPSDEQLKSGTASVVCLLNNFYPREAKVQWKVDNALQSGNSQESVTEQDSKDSTYSLSSTLTLSKADYEKHKVYACEVTHQGLSSPVTKSFNRGEC
notes: Anti-PD-L1 VHH-(G4S)3 fused to the N-terminus of the light chain
EC50 [1]: 0.0133 nM | Kd [9]: 1.29 nM | koff [9]: 0.00103 s⁻¹ | kon [9]: 801000 M⁻¹ s⁻¹ | IC50 [10]: 0.59 nM

B3: QP256253 (antibody, human IgG4, V domains shown)
VH: QVQLVQSGAEVKKPGASVKVSCKASGYTFTNYWINWVRQAPGQGLEWIAMIDPSDSETHYNQIFKDRATLTTDTSTSTAYMELRSLRSDDTAVYYCAMDYGSLYAMDYWGRGTLVTVSS
VL: DIVLTQSPDSLAVSLGERATINCRASKSVSSSGYNYIFWYQQKPGQPPKLLIYLASNLDSGVPDRFSGSGSGTDFTLTISSLQAEDVAVYYCQHSRELPTFGQGTKLEIK
notes: also called humanized antibody QP256253; QP163164 humanized clone
Kd [12]: 77.9 nM | koff [12]: 0.196 s⁻¹ | kon [12]: 2.52e+06 M⁻¹ s⁻¹ | Kd [13]: 0.319 nM | koff [13]: 0.00109 s⁻¹ | kon [13]: 3.42e+06 M⁻¹ s⁻¹ | Kd [14]: 0.336 nM | koff [14]: 0.00079 s⁻¹ | kon [14]: 2.35e+06 M⁻¹ s⁻¹ | EC50 [15]: 1.51 ng/mL | EC50 [16]: 0.947 ng/mL | EC50 [17]: 1.26 ng/mL | EC50 [18]: 1.72 ng/mL | EC50 [19]: 1.19 ng/mL | EC50 [20]: 1.19 ng/mL | Kd [21]: 12.7 nM | Kd [22]: 7.97 nM | Kd [23]: 26.8 nM | Kd [24]: 0.276 nM | Kd [25]: 0.26 nM | IC50 (read off the curve) [26]: ~20 ng/mL

B4: 71C10 (antibody, V domains shown)
VH: QVQLQQPGTELVRPGASVKLSCKASGYTFTNYWINWVKQRPGQGLEWIAMIDPSDSETHYNQIFKDKATLTVDKSSNTAYMQLSSLTSGDSAVYYCAMDYGSLYAMDYWGRGTSVTVSS
VL: DIVLTQSPASLAVSLGQRATISCRASKSVSSSGYNYIFWYQQKPGQPPKLLIYLASNLDSGVPARFSGSGSGTDFTLNIHPVEEEDAATYYCQHSRELPTFGGGTKLEIK
notes: Mouse hybridoma antibody tested as culture supernatant; also called hybridoma monoclonal antibody 71C10; single-cell clone 71C10
binding result [27]: binds

B5: QP026027 (antibody, human IgG1, kappa)
heavy: not shown
light: QIVLTQSPAIMSASPGEKVTLTCSASSSVSSSYLYWYQQKPGSSPKLWIYSTSNLASGVPARFSGSGSGTSYSLTISSMEAEDAASYFCHQWSSYPRTFGAGTKLELKRTVAAPSVFIFPPSDEQLKSGTASVVCLLNNFYPREAKVQWKVDNALQSGNSQESVTEQDSKDSTYSLSSTLTLSKADYEKHKVYACEVTHQGLSSPVTKSFNRGEC
notes: also called KWAR23 (QP026027); control antibody KWAR23, human IgG1
IC50 [28]: 0.295 nM | Kd [29]: 12.3 nM | koff [29]: 0.0246 s⁻¹ | kon [29]: 2.01e+06 M⁻¹ s⁻¹ | Kd [30]: 5.12 nM | koff [30]: 0.00465 s⁻¹ | kon [30]: 908000 M⁻¹ s⁻¹
